Our source for the IC50 and Kd values is publication PMC6791878 (2019).

Like-named read-outs stand apart in the source and are kept apart here. Where no end group is shown, it is not given here.

Sequences and labels used below:
B1: Recombinant human integrin αvβ6 (complex)
chain 1: FNLDVDSPAEYSGPEGSYFGFAVDFFVPSASSRMFLLVGAPKANTTQPGIVEGGQVLKCDWSSTRRCQPIEFDATGNRDYAKDDPLEFKSHQWFGASVRSKQDKILACAPLYHWRTEMKQEREPVGTCFLQDGTKTVEYAPCRSQDIDADGQGFCQGGFSIDFTKADRVLLGGPGSFYWQGQLISDQVAEIVSKYDPNVYSIKYNNQLATRTAQAIFDDSYLGYSVAVGDFNGDGIDDFVSGVPRAARTLGMVYIYDGKNMSSLYNFTGEQMAAYFGFSVAATDINGDDYADVFIGAPLFMDRGSDGKLQEVGQVSVSLQRASGDFQTTKLNGFEVFARFGSAIAPLGDLDQDGFNDIAIAAPYGGEDKKGIVYIFNGRSTGLNAVPSQILEGQWAARSMPPSFGYSMKGATDIDKNGYPDLIVGAFGVDRAILYRARPVITVNAGLEVYPSILNQDNKTCSLPGTALKVSCFNVRFCLKADGKGVLPRKLNFQVELLLDKLKQKGAIRRALFLYSRSPSHSKNMTISRGGLMQCEELIAYLRDESEFRDKLTPITIFMEYRLDYRTAADTTGLQPILNQFTPANISRQAHILLDCGEDNVCKPKLEVSVDSDQKKIYIGDDNPLTLIVKAQNQGEGAYEAELIVSIPLQADFIGVVRNNEALARLSCAFKTENQTRQVVCDLGNPMKAGTQLLAGLRFSVHQQSEMDTSVKFDLQIQSSNLFDKVSPVVSHKVDLAVLAAVEIRGVSSPDHVFLPIPNWEHKENPETEEDVGPVVQHIYELRNNGPSSFSKAMLHLQWPYKYNNNTLLYILHYDIDGPMNCTSDMEINPLRIKISSLQTTEKNDTVAGQGERDHLITKRDLALSEGDIHTLGCGVAQCLKIVCQVGRLDRGKSAILYVKSLLWTETFMNKENQNHSYSLKSSASFNVIEFPYKNLPIEDITNSTLVTTNVTWGIQPAPMPV
chain 2: GCALGGAETCEDCLLIGPQCAWCAQENFTHPSGVGERCDTPANLLAKGCQLNFIENPVSQVEILKNKPLSVGRQKNSSDIVQIAPQSLILKLRPGGAQTLQVHVRQTEDYPVDLYYLMDLSASMDDDLNTIKELGSRLSKEMSKLTSNFRLGFGSFVEKPVSPFVKTTPEEIANPCSSIPYFCLPTFGFKHILPLTNDAERFNEIVKNQKISANIDTPEGGFDAIMQAAVCKEKIGWRNDSLHLLVFVSDADSHFGMDSKLAGIVIPNDGLCHLDSKNEYSMSTVLEYPTIGQLIDKLVQNNVLLIFAVTQEQVHLYENYAKLIPGATVGLLQKDSGNILQLIISAYEELRSEVELEVLGDTEGLNLSFTAICNNGTLFQHQKKCSHMKVGDTASFSVTVNIPHCERRSRHIIIKPVGLGDALELLVSPECNCDCQKEVEVNSSKCHHGNGSFQCGVCACHPGHMGPRCECGEDMLSTDSCKEAPDHPSCSGRGDCYCGQCICHLSPYGNIYGPYCQCDNFSCVRHKGLLCGGNGDCDCGECVCRSGWTGEYCNCTTSTDSCVSEDGVLCSGRGDCVCGKCVCTNPGASGPTCERCPTCGDPCNSKRSCIECHLSAAGQAREECVDKCKLAGATISEEEDFSKDGSVSCSLQGENECLITFLITTDNEGKTIIHSINEKDCPKPPNIP

The target of test [1] is B1. The experiment in a line: FACS; competition with yeast-displayed R01-MG. For orientation: In flow cytometry, cells or beads pass a laser one at a time.
The target of another test is R01-MW. Kind of test: FACS.
For test [2], the target named is B1. The experiment in a line: FACS; competition with yeast-displayed R01-MG.

The term IC50 denotes the concentration that inhibits the measured activity by half. In the case of {(19F)fluoropropyl}-GCILNGRTDLGTLLFRCRRDSDCPGACICRGNGYCG (designed binder, disulfide (positions not given here); not fully specified (C-terminus)) [[^19F]FP-R01-MG-F2], the IC50 in test [1] stood at 0.469 nM.

As usually defined, the Kd is the equilibrium constant for the complex coming apart. Consider B1, for which binding in the test with R01-MW was put at a Kd of 1.69 nM. This counts as single-digit nanomolar.

Regarding {2‑(19F)fluoropropionyl}-GCILNGRTDLGTLLFRCRRDSDCPGACICRGNGYCG-NH2 (disulfide (positions not given here); not fully specified (bridges)) [[19F]FP-R01-MG-F1], in test [2], the IC50 came to 0.541 nM.

Take GCILNGRTDLGTLLFRCRRDSDCPGACICRGNGYCG-NH2 (designed binder, disulfide (positions not given here)) [R01-MG synthetic cystine knot peptide (unlabeled precursor)]: the IC50 in test [1] amounted to 0.383 nM.
